Measurements taken from PMC3787745, “Yeast Mnn9 is both a priming glycosyltransferase and an allosteric activator of mannan biosynthesis” (Open Biology, 2013).

Target: T1, ScVan1 (Saccharomyces cerevisiae Van1p glycosyltransferase domain, residues 87-535) (S. cerevisiae, UniProt P23642 87-535)
T1 construct: Van1p, S. cerevisiae S288c, lacking the first 86 amino acid residues (cytoplasmic domain, transmembrane domain and predicted disordered region); glycosyltransferase domain 87-535; Cloned into pNIFTY/MBP (MBP, hexahistidine, TEV site at the N-terminus); the tag was cleaved off with TEV protease; also called ScVan1p; V1; source: E. coli BL21(DE3) pLysS, purified (Ni-IMAC, TEV cleavage, anion …)
T1 sequence (looked up): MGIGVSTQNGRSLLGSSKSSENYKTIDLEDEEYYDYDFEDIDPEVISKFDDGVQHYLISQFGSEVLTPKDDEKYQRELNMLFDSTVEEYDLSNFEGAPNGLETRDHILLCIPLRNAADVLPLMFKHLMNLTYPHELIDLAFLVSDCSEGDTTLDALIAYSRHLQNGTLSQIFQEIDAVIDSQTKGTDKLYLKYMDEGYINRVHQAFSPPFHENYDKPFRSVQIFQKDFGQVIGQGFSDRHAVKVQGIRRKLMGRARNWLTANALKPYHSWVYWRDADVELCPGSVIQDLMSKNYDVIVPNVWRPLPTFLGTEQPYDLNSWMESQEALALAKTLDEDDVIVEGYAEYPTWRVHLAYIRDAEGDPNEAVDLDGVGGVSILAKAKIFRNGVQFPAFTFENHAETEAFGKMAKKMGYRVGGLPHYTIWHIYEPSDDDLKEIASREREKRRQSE
Assay: BLI; Octet RED384; biotinylated ScMnn9 bound at 25 µg/ml to streptavidin sensors; ScVan1 at 0 to 15 µM in buffer C (100 mM HEPES pH 7.5, 5 mM MnCl2, 1 mg/ml BSA, 0.015% BRIJ 35); association 10 min, dissociation 20 min; triplicate, full kinetic fit
Settings: both partners purified

Kd: 0.48 µM
koff: 0.00032 s⁻¹
kon: 620 M⁻¹ s⁻¹
B1: ScMnn9 (Saccharomyces cerevisiae Mnn9p glycosyltransferase core, residues 93-395) (domain or fragment, S. cerevisiae, UniProt P39107 93-395, looked up)
chain: EGHIAHYDLNKLHSTSEAAVNKEHILILTPMQTFHQQYWDNLLQLNYPRELIELGFITPRTATGDLALKKLENAIKKVQTDKKTQRFSKITILRQNSQSFDKLMEKERHALDVQKERRAAMALARNELLFSTIGPHTSWVLWLDADIIETPPSLIQDMTKHNKAILAANIYQRFYDEEKKQPSIRPYDFNNWQESDTGLEIASQMGDDEIIVEGYAEIATYRPLMAHFYDANGVPGEEMALDGVGGGCTLVKAEVHRDGAMFPNFPFYHLIETEGFAKMAKRLNYDVFGLPNYLVYHIEEENH
modifications: biotinylated with EZ-link NHS-PEG4-Biotin
notes: Mnn9p, S. cerevisiae S288c, lacking the first 92 amino acid residues (cytoplasmic domain, transmembrane domain and predicted disordered region); glycosyltransferase core 93-395; Cloned into pNIFTY/MBP (MBP, hexahistidine, TEV site at the N-terminus); PDB 3ZF8 holds the D236N mutant of the same limits; also called ScMnn9p; M9; source: E. coli BL21(DE3) pLysS, purified (Ni-IMAC, TEV cleavage, anion …)
